The target of experiment [1] is murine PD-1 on mouse T cells (Balb/c LN T cells, DO11.10 CD4+ T cells, TCR transgenic LN T cells) (murine) (UniProt Q02242).
Experiment [2] concerns the target human PD-1 gamma 2a fusion protein (human PD-1 extracellular region fused to murine Ig gamma2a hinge-CH2-CH3) (human; murine) [IgG part: P01863]. Nature of the experiment: ELISA: biotinylated PD-L1Fc on immobilized human PD-1Fc, streptavidin-HRP.
Experiment [3] deals with human PD-1 on human T cells or Jurkat T cells (human).
The target is the same in experiment [4]. This is another data set of the same source.
Experiment [5] has the same target. This is another data set of the same source.
Experiment [6] has as its target PD-1 on T cells (species not stated in these experiments).
Experiment [7] has the same target. The source holds these as a separate data set.
Experiment [8] has the same target. The source holds these as a separate data set.

Take mPD-L1.Fc fusion protein: the percentage of dividing cells by propidium iodide staining (DNA content), day 4 (% dividing cells) in experiment [1] came out at 11.
On to “human PD-L1.Ig (extracellular region of human PD-L1 fused to murine Ig gamma2a hinge-CH2-CH3) (from UniProt P01863) (Fc fusion)”, for which the ED50 in experiment [2] is 0.108 µg/mL. This substance also had a proliferation (3H-thymidine) of human CD4+ T cells, 96 hours in experiment [3] of 69 % decrease. In experiment [4], the IL-10 secretion (ELISA) by human CD4+ T cells was 60 % decrease and the interferon-γ secretion (ELISA) by human CD4+ T cells came out at 80 % decrease. The proliferation of human CD4+ T cells, suboptimal anti-CD3 (1 µg/ml) with soluble anti-CD28 in experiment [5] was found to be 80 % reduction.
Turning to “PD-L1.Fc (species not stated in these experiments) (Fc fusion)”, the % CD69+ T cells (flow cytometry), 72 hours in experiment [6] came to 42 % CD69+. The substance further came in with a % apoptotic T cells (propidium iodide and annexin positive), 72 hours in experiment [7] of 12 % apoptotic. Moreover, the % IL-2R+ (CD25) T cells (flow cytometry), 79 hours in experiment [8] was found to be 15 % IL-2R+.

The record behind these values is patent US7029674B2.
